Assay results from IntAct's records for PubMed 23900285.

B1: Peroxisomal biogenesis factor 3 (Saccharomyces cerevisiae), P28795 (parent)
chain: MAPNQRSRSLLQRHRGKVLISLTGIAALFTTGSVVVFFVKRWLYKQQLRITEQHFIKEQIKRRFEQTQEDSLYTIYELLPVWRMVLNENDLNLDSIVTQLKDQKNQLTRAKSSESRESSPLKSKAELWNELELKSLIKLVTVTYTVSSLILLTRLQLNILTRNEYLDSAIKLTMQQENCNKLQNRFYNWVTSWWSDPEDKADDAMVMAAKKSKKEGQEVYINEQAFLSLSWWILNKGWLSYNEIITNQIEIEFDGIHPRDTLTLEEFSSRLTNIFRNTNSQIFQQNNNNLTSILLPKDSSGQEFLLSQTLDADALTSFHSNTLVFNQLVNELTQCIESTATSIVLESLINESFHFIMNKVGIKTIAKKKPGQEDQQQYQMAVFAMSMKDCCQEMLQTTAGSSHSGSVNEYLATLDSVQPLDDLSASVYSNFGVSSSFSFKP
partner: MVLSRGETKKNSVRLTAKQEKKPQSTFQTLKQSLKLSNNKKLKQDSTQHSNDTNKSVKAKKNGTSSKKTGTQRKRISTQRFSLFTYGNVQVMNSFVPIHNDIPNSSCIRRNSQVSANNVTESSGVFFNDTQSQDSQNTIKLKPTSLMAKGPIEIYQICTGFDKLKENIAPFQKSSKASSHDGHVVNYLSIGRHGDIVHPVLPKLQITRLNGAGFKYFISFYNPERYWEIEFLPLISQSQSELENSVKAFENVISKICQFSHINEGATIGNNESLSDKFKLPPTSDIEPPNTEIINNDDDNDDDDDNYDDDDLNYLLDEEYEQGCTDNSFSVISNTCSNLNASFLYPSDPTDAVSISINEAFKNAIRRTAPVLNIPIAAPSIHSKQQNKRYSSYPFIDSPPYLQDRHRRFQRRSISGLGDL

Variants of: B1
Details: with inp1_yeast INP1, Q03694

| effect of a mutation on the interaction | Variant |
| --- | --- |
| decreasing interaction | MAPNQRSRSLLQRHRGKVLISLTGIAALFTTGSVVVFFVKRWLYKQQLRITEQHFIKEQIKRRFEQTQEDSLYTIYELLPVWRMVLNENDLNLDSIVTQLKDQKNQLTRAKSSESRESSPLKSKAELWNELELKSLIKLVTVTYTVSSLILLTRLQLNILTRNEYLDSAIKLTMQQENCNKLQNRFYIWVTSWWSDPEDKADDAMVMAAKKSKKEGQEVYINEQAFLSLSWWILNKGWLSYNEIITNQIEIEFDGIHPRDTLTLEEFSSRLTNIFRNTNSQIFQQNNNNLTSILLPKDSSGQEFLLSQTLDADALTSFHSNTLVFNQLVNELTQCIESTATSIVLESLINESFHFIMNKVGIKTIAKKKPGQEDQQQYQMAVFAMSMKDCCQEMLQTTAGSSHSGSVNEYLATLDSVQPLDDLSASVYSNFGVSSSFSFKP [N188I] |

Variants of: B1
Details: with inp1_yeast INP1, Q03694
Remark: another data set of the same source

| effect of a mutation on the interaction | Variant |
| --- | --- |
| disrupting interaction | MAPNQRSRSLLQRHRGKVLISLTGIAALFTTGSVVVFFVKRWLYKQQLRITEQHFIKEQIKRRFEQTQEDSLYTIYELLPEWRMVLNENDLNLDSIVTQLKDQKNQLTRAKSSESRESSPLKSKAELWNELELKSLIKLVTVTYTVSSLILLTRLQLNILTRNEYLDSAIKLTMQQENCNKLQNRFYNWVTSWWSDPEDKADDAMVMAAKKSKKEGQEVYINEQAFLSLSWWILNKGWLSYNEIITNQIEIEFDGIHPRDTLTLEEFSSRLTNIFRNTNSQIFQQNNNNLTSILLPKDSSGQEFLLSQTLDADALTSFHSNTLVFNQLVNELTQCIESTATSIVLESLINESFHFIMNKVGIKTIAKKKPGQEDQQQYQMAVFAMSMKDCCQEMLQTTAGSSHSGSVNEYLATLDSVQPLDDLSASVYSNFGVSSSFSFKP [V81E] |
